This is an account of results in publication PMC3367207 (Nucleic Acids Research, 2012).

The data set deals with the molecule itself. The experiment in a line: FRET or BRET.

B1: FokI restriction endonuclease (enzyme, UniProt P14870 1-579, looked up)
chain: MVSKIRTFGWVQNPGKFENLKRVVQVFDRNSKVHNEVKNIKIPTLVKESKIQKELVAIMNQHDLIYTYKELVGTGTSIRSEAPCDAIIQATIADQGNKKGYIDNWSSDGFLRWAHALGFIEYINKSDSFVITDVGLAYSKSADGSAIEKEILIEAISSYPPAIRILTLLEDGQHLTKFDLGKNLGFSGESGFTSLPEGILLDTLANAMPKDKGEIRNNWEGSSDKYARMIGGWLDKLGLVKQGKKEFIIPTLGKPDNKEFISHAFKITGEGLKVLRRAKGSTKFTRVPKRVYWEMLATNLTDKEYVRTRRALILEILIKAGSLKIEQIQDNLKKLGFDEVIETIENDIKGLINTGIFIEIKGRFYQLKDHILQFVIPNRGVTKQLVKSELEEKKSELRHKLKYVPHEYIELIEIARNSTQDRILEMKVMEFFMKVYGYRGKHLGGSRKPDGAIYTVGSPIDYGVIVDTKAYSGGYNLPIGQADEMQRYVEENQTRNKHINPNEWWKVYPSSVTEFKFLFVSGHFKGNYKAQLTRLNHITNCNGAVLSVEELLIGGEMIKAGTLTLEEVRRKFNNGEINF
In the case of B1, the binding result is recorded as “binds”.
